Earlier results, collected in paper PMC6828933.

Biological target: eNOS (Homo sapiens) (UniProt P29474)
Chain of UniProt P29474 (P29474 2-1203): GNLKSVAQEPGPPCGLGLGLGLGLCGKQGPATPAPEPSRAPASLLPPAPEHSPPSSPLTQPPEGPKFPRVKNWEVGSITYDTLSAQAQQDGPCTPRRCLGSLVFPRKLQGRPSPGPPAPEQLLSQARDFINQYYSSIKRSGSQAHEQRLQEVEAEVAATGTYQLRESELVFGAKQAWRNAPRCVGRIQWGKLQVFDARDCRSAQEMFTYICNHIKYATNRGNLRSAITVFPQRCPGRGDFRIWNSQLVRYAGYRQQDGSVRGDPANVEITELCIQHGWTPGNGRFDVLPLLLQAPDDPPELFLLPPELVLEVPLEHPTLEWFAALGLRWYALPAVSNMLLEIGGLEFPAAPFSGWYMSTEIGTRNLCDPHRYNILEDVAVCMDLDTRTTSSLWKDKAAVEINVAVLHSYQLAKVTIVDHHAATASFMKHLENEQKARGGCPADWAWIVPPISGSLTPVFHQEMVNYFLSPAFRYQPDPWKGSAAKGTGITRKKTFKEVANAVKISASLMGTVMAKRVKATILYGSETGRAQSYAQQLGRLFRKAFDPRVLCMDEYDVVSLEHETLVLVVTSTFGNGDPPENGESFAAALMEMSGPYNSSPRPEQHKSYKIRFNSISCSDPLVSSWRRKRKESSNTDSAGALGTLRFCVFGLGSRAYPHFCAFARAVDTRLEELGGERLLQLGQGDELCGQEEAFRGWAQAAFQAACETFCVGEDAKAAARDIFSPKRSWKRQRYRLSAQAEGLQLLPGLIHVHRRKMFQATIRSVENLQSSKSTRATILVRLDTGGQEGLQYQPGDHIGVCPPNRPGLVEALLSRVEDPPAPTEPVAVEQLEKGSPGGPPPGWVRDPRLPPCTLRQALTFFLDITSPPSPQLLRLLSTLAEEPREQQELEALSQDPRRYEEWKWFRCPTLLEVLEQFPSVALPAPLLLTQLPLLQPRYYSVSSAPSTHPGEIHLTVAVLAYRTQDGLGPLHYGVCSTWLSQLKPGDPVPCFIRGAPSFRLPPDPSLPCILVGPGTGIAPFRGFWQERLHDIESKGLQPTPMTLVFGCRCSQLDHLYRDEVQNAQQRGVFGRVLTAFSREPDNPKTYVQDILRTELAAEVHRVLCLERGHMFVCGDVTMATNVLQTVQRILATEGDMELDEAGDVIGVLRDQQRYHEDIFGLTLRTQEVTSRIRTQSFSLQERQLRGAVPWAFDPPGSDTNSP

- Kd: 42 nM
Substance: Caveolin-1 90-99 (from UniProt Q03135)
